Laboratory results taken from PMC6849348, “Theranostic Application of a Novel G-Quadruplex-Forming DNA Aptamer Targeting Malate Synthase of Mycobacterium tuberculosis”.

How the values were obtained:
[1] = molecular target: T1, malate synthase (MS, GlcB) (Mycobacterium tuberculosis, UniProt P9WK17 1-741); experiment: ALISA; conditions: protein: recombinant; tags: C-terminal His6
[2] = molecular target: T1, malate synthase (MS, GlcB); experiment: SPR; conditions: protein: recombinant, tags: C-terminal His6
[3] = molecular target: T1, malate synthase (MS, GlcB); experiment: enzyme inhibition; glyoxylate, acetyl-CoA, 5 mM Mg2+; conditions: protein: recombinant, tags: C-terminal His6
[4] = molecular target: T1, malate synthase (MS, GlcB); experiment: enzyme inhibition (mixed); glyoxylate, acetyl-CoA, 5 mM Mg2+; conditions: protein: recombinant, tags: C-terminal His6
[5] = G4 parallel (CD, NMR), modeled as tetramer of 4 strands

T1 sequence (P9WK17 whole entry): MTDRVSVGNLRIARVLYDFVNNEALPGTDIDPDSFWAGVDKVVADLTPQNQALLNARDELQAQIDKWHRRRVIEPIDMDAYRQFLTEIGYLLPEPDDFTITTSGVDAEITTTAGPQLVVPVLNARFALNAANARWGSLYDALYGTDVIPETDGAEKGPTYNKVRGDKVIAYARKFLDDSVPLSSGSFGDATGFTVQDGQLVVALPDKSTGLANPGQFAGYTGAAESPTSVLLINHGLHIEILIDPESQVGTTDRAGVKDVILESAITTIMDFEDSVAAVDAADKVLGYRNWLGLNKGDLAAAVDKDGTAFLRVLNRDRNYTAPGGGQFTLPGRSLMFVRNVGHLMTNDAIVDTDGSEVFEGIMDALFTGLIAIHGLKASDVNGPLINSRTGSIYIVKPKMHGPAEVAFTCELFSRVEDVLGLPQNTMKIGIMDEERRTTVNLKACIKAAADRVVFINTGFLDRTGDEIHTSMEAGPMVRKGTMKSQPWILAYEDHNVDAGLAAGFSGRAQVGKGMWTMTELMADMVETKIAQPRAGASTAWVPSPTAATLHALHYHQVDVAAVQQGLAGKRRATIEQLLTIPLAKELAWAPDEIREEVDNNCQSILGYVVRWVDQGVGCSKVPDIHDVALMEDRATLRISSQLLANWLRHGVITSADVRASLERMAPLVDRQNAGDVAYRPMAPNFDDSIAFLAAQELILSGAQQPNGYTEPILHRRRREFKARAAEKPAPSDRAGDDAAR

GGGGTGGTGG (structured_DNA) [MS10-Trunc dT3]: binds [1].

GGTGGTGGGG (structured_DNA) [MS10-Trunc dT9]: binds [1].

Binder GGTGTGTTGACTGAGGGGGTGGGGTGGGTGGTGGTGGATATAGC (structured_DNA) [MS10] has a Kd ([2]; G4, parallel (CD)) of 12 nM, an IC50 ([3]; G4, parallel (CD)) of 276 nM and a Ki ([4]; G4, parallel (CD)) of 270 nM.

For GGTGGTGGTGG (structured_DNA) [MS10-Trunc], the Kd [2, 5] was 0.019 nM, the IC50 [3, 5] was 251 nM and the Ki [4, 5] was 230 nM.
